Data published in patent publication US20250346679A1 (INVOX PHARMA, published 2025).

T1: mouse FcRn (R&D systems, 9114-Fc) (mouse, UniProt Q61559 22-297; P01887 21-119, limits assumed)
T1 sequence (looked up) 1: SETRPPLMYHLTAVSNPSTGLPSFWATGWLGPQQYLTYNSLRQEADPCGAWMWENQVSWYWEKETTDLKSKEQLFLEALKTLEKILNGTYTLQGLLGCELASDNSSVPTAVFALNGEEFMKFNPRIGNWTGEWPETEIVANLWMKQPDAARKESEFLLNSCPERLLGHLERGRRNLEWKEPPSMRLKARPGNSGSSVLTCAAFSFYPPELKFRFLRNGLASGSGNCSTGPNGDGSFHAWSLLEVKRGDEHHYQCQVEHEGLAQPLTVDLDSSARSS
T1 sequence (looked up) 2: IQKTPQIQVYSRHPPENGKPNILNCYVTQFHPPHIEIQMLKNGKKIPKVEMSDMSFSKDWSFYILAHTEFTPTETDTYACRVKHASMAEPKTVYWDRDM


How the values were obtained:
[1] = biological target: T2, human PD-L1, cell-surface (human, UniProt Q9NZQ7 19-290); experiment: cell-based or functional assay
[2] = biological target: T2, human PD-L1, cell-surface; experiment: cell-based or functional assay; remark: listed apart in the source
[3] = biological target: T2, human PD-L1, cell-surface; experiment: flow cytometry on HEK.hPD-L1
Protocol: (§1) Non-specific binding was also assessed by testing binding to HEK293 parental cells lacking human PD-L1 (Flp-In T-Rex 293 cell line, Life Technologies, R780-07).
(§2) HEK293, HEK.hPD-L1 and HEK.cPD-L1 suspensions were prepared in FACS buffer (DPBS (Gibco, 14190-094) containing 0.5% BSA (Sigma, A7906)) and seeded at 1×10⁵ cell/well in 100 μl in round bottomed 96-well plates (VWR, 734-1797). […] The washed cells were resuspended in the diluted antibody mixture, incubated at 4° C. for 30 minutes, and then washed once in FACS buffer. […] Dead cells were excluded and the fluorescence in the APC channel (638 nm 660/20) was measured. The geometric mean fluorescence intensity (GMFI) values were plotted vs the log concentration of antibody and the resulting curves were fitted using the log (agonist) vs response equation in GraphPad Prism.

[4] = biological target: T3, cynomolgus PD-L1, cell-surface (cynomolgus); experiment: flow cytometry on HEK.cPD-L1
T3 construct: also called HEK.cPD-L1; HEK.cyPD-L1
Protocol: as §1, §2

[5] = biological target: T4, cPD-L1-His (Acro Biosystems, PD1-C52H4) (cynomolgus, UniProt Q9NZQ7 19-238 (human entry)); experiment: SPR, antibody captured on Protein A chip, antigen in flow
T4 construct: bought; also called Cyno PD-L1-His; Cynomolgus PD-L1-His; not shown: His tag of the bought product

[6] = biological target: T5, biotinylated hPD-L1-Avi-His (Acro Biosystems, PD1-H82E5) (human, UniProt Q9NZQ7 19-238, biotinylated); experiment: as above
T5 construct: bought; also called Human PD-L1-His; not shown: Avi and His tags of the bought product

[7] = biological target: T2, human PD-L1, cell-surface; experiment: cell-based or functional assay; remark: listed apart in the source
[8] = biological target: T2, human PD-L1, cell-surface; experiment: flow cytometry on activated primary human CD4+ T cells; activated primary human CD4+ T cells
Protocol: CD137 is rapidly expressed to high levels on activated CD8⁺ T cells and also on activated CD4⁺ T cells with lower levels (Xue-Zhong Yu et al, 2013), therefore Pan T cells were stimulated for 24 hours using Dynabeads™ Human T-Activator CD3/CD28 beads (Thermo, 11132D) according to manufacturer's instructions.
Dead cells were excluded and the fluorescence in the APC channel (638 nm 660/20) was measured to show test antibody binding. The geometric Mean Fluorescence Intensity (GMFI) values were plotted vs the log concentration of antibody and the resulting curves were fitted using the log (agonist) vs response equation in GraphPad Prism.

[9] = biological target: T2, human PD-L1, cell-surface; experiment: cell-based or functional assay; remark: listed apart in the source
[10] = biological target: Human FcRn (Acro Biosystems, FCM-H5286) (human, UniProt P55899 24-297; P61769 21-119); experiment: SPR, antibody immobilised, FcRn in flow, pH 6.0, steady state affinity; pH 6.0
Text: (§3) The neonatal Fc receptor (FcRn) binding is critical for antibody recycling (Martins et al., 2016). […] G1-AA/HeID1.3 was included as an isotype control IgG control lacking mutations in the CH3 domain.
(§4) Briefly, mAb² were individually coated on flow cell 2, 3 and 4 of Series S Sensor Chip CM5 (GE Healthcare, BR100530) to achieve a response of approximately 1000 RU. Flow cell 1 was activated/deactivated but left blank as a reference. Human FcRn (Acro Biosystems, FCM-H5286) or mouse FcRn (R&D systems, 9114-Fc) was dialysed and diluted in MHBS-EP⁺B pH 6.0 or pH 7.4 buffer (10 mM MES, FortéBio, 18-5026; 1×HBS-EP, GE Healthcare, BR100669; 0.1 mg/ml BSA, Sigma, A7906) and injected on flow cell 1, 2, 3 and 4 at 2000-3000 nM with 2-fold dilutions for 1 min at 80 μl/min and then allowed to dissociate in buffer for 3 min. […] Subtracted data (flow cell 2−flow cell 1, flow cell 3−flow cell 1, or flow cell 4−flow cell 1) was analysed using Biacore T200 Evaluation Software 2.0 to identify binding using the model steady state affinity.

[11] = biological target: T1, mouse FcRn (R&D systems, 9114-Fc); experiment: as above
Text: as §3, §4

T2 sequence (Q9NZQ7 19-290): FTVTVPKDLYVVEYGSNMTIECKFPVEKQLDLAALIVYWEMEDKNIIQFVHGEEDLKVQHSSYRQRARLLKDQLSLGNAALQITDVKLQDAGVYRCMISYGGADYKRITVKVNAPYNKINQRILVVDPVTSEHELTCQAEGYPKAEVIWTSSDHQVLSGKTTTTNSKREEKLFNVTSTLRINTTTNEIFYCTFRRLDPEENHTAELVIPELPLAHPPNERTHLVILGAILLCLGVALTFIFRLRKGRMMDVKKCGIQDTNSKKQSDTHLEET
T3 sequence (chain, as listed by the source limits assumed): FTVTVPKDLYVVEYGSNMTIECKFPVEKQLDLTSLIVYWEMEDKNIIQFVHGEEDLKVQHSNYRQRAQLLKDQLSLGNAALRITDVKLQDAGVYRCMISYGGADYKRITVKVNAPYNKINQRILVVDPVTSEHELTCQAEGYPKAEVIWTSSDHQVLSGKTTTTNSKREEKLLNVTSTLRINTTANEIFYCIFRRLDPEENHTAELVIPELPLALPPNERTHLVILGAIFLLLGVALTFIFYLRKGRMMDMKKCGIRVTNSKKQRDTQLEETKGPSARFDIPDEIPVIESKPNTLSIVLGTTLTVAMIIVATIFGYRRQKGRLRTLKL
T5 sequence (Q9NZQ7 19-238): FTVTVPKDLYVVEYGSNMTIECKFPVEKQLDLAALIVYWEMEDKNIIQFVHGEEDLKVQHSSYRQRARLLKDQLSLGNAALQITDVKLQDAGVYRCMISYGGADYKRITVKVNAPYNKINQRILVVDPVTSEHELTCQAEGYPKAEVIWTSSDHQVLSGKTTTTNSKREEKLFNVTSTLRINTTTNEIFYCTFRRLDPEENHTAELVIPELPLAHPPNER
T4 sequence (Q9NZQ7 other isoform, or with tags, fused parts or gaps): as the sequence (Q9NZQ7 19-238) above, with A33T, A34S, S62N, R68Q, Q82R, F173L, T185A, T192I, H215L counted along it
Human FcRn (Acro Biosystems, FCM-H5286), sequence (P55899 24-297 limits assumed, chain 1 of 2): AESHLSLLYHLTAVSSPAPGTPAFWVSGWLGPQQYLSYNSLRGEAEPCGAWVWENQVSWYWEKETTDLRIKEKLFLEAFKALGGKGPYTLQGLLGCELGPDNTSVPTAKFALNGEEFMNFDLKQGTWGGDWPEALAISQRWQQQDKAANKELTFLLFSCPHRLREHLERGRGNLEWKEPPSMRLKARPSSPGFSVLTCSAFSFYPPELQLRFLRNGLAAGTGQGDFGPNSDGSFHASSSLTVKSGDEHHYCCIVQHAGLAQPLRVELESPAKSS
Human FcRn (Acro Biosystems, FCM-H5286), sequence (P61769 21-119 limits assumed, chain 2 of 2): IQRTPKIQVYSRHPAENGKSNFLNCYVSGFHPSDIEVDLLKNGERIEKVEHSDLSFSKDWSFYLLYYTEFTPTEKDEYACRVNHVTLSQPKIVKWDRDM

Row | Binder | EC50 (nM), IFN-γ release, CEF antigen recall assay (CD8+ T cell activation) [1] [nM] | EC50 (nM), IFN-γ release, CEFT antigen recall assay (CD4+ T cell activation) [2] [nM] | EC50 [3] [nM] | EC50 [4] [nM] | Kd [5] [nM] | Kd [6] [nM] | EC50 (nM), mouse IL-2 release, DO11.10 / LK35.2 PD-L1 blockade assay [7] [nM] | EC50 [8] [nM] | EC50 (nM), IFN-γ release, human MLR [9] [nM] | Kd [10] [nM] | Kd [11] [nM]
1 | G1-AA/E12v2 (antibody, human IgG1, kappa, L234A L235A, V domains shown, anti-PD-L1 IgG1 with LALA) VH: EVQLVQSGAEVKRPGASVKVSCKASGYPFTSYGISWVRQAPGQGLEWMGWISAYSGGTNYAQKLQGRVTMTTDTSTSTAYMELRSLRSDDTAVYYCARDLFPTIFGVSYYYYWGQGTLVTVSS VL: DIQMTQSPSTLSASVRDRVIITCRASQSIGNRLAWYQHKPGKAPKLLIYEASTSETGVPSRFSGSGSGTDFTLTISSLQPEDFATYYCQQSYSTPYTFGQGTKLEIKR | 0.04 | 0.06 | 3.1 | 0.6 | 0.37 | 0.21 | 1.19 | 0.8 | 0.08 |  | 
2 | G1-AA/HeID1.3 (antibody, human IgG1, kappa, L234A L235A, anti-hen egg lysozyme IgG1 with LALA, isotype control) heavy: not shown light: DIQMTQSPASLSASVGETVTITCRASGNIHNYLAWYQQKQGKSPQLLVYNAKTLADGVPSRFSGSGSGTQYSLKINSLQPEDFGSYYCQHFWSTPRTFGGGTKLEIKRTVAAPSVFIFPPSDEQLKSGTASVVCLLNNFYPREAKVQWKVDNALQSGNSQESVTEQDSKDSTYSLSSTLTLSKADYEKHKVYACEVTHQGLSSPVTKSFNRGEC |  |  |  |  |  |  |  |  |  | 1230 | 160
